Kd, koff and kon data for 1 substance are collected here from article PMC3217939.

The term Kd denotes the free concentration of one partner at which half of the binding sites on the other are occupied at equilibrium, for simple one-to-one binding. The koff is a measure of how fast the partners let go of each other. A lower koff goes with a long-lived complex. As usually defined, the kon is the second-order rate constant of association. Read a low kon as slow association.

The target of this test is Cotton leaf curl Kokhran virus-Dabawali V2, His-tagged (Cotton leaf curl Kokhran virus-Dabawali). In words: SPR; BIAcore 2000, 25 C; His-tagged V2 immobilised on Ni-NTA chip (about 340-350 RU); GST-CP 100-800 nM flowed at 20 ul/min, 90 s association; 10 mM HEPES pH 7.4, 150 mM NaCl, 50 uM EDTA, 0.005% surfactant P-20; global fit, 1:1 Langmuir model. In general terms: Surface plasmon resonance follows binding to a sensor surface in real time, without labels.

Consider “GST-CP fusion protein (coat protein of Cotton leaf curl Kokhran virus-Dabawali) (natural protein)”, for which the Kd is 2600 nM, the koff was determined as 0.00267 s⁻¹ and the kon was 1030 M⁻¹ s⁻¹.
